Reference: article PMC11417369, “DNA sequence and chromatin differentiate sequence-specific transcription factor binding in the human malaria parasite Plasmodium falciparum”

T1: SIP2 D1 (Plasmodium falciparum, UniProt C6KSN9 177-235)
T1 sequence: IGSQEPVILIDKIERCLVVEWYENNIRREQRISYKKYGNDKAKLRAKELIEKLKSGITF

T2: HDP1 homeodomain-like (Plasmodium falciparum, UniProt Q8IKH4 2990-3078)
T2 sequence: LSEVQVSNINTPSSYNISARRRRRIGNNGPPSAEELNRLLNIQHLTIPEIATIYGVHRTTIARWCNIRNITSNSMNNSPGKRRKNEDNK

T3: AP2-G D1 (Plasmodium falciparum, UniProt Q8I5I9 2123-2245)
T3 sequence: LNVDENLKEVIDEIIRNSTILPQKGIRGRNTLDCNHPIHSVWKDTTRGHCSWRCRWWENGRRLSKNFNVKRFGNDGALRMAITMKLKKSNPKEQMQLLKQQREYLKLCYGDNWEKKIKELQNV


Key:
Assay in all cases: gcPBM; about 25 ug protein; PBS, 1% milk, 0.2 mg/ml BSA, salmon testes DNA, 0.03% Triton X-100
[1] = biological target: T1, SIP2 D1; conditions: tags: N-terminal GST (pGEX-4T-1), kept; label: surface-attached array probe
[2] = biological target: T2, HDP1 homeodomain-like; conditions: tags: N-terminal GST (pGEX-4T-1), kept; chain copies: 2; label: surface-attached array probe
[3] = biological target: AP2-I D3 (Plasmodium falciparum, UniProt Q8IJW6 910-1027); conditions: tags: N-terminal GST (pGEX-4T-1), kept; label: surface-attached array probe
[4] = biological target: T3, AP2-G D1; conditions: tags: N-terminal GST (pGEX-4T-1), kept; label: surface-attached array probe

Binder	binding signal [1]	binding signal [2]	binding signal [3]	binding signal [4]
GTGCAC_site10021 (dsDNA) DNA 1: ATAAAATATATATTAGTGCACTAAAGGAAAAAAAAT DNA 2: ATTTTTTTTCCTTTAGTGCACTAATATATATTTTAT	10.4 ln median PBM intensity, better of two orientations	11.6 ln median PBM intensity, better of two orientations	12.4 ln median PBM intensity, better of two orientations	
GTGCAC_negctrl_site285 (dsDNA) DNA 1: AAAATATTATTACAGAAACAAAAAGAAAAATATATA DNA 2: TATATATTTTTCTTTTTGTTTCTGTAATAATATTTT	6.76 ln median PBM intensity, better of two orientations	6.37 ln median PBM intensity, better of two orientations	7.1 ln median PBM intensity, better of two orientations	
GTGCAC_negctrl_site633 (dsDNA) DNA 1: AAAAAAATAAAAAATATATAAATAATTAATACATGT DNA 2: ACATGTATTAATTATTTATATATTTTTTATTTTTTT		6.32 ln median PBM intensity, better of two orientations	7.14 ln median PBM intensity, better of two orientations	
GTGCAC_negctrl_site150 (dsDNA) DNA 1: TTGTAATAAAGAATTAAAAAAAAATATATACAGGTA DNA 2: TACCTGTATATATTTTTTTTTAATTCTTTATTACAA	6.9 ln median PBM intensity, better of two orientations	6.31 ln median PBM intensity, better of two orientations	7.17 ln median PBM intensity, better of two orientations	
XGTACX_site4956 (dsDNA) DNA 1: AATAAATGGAAAAGGTGTACACAAAAAAAAGGGAAA DNA 2: TTTCCCTTTTTTTTGTGTACACCTTTTCCATTTATT				12.8 ln median PBM intensity, better of two orientations
XGTACX_site1704 (dsDNA) DNA 1: CTCGTATATATAATACGTACATATTATATATATATA DNA 2: TATATATATATAATATGTACGTATTATATATACGAG				12.9 ln median PBM intensity, better of two orientations
GTGCAC_negctrl_site475 (dsDNA) DNA 1: AGAAATAATATTATTCAAGTATTTATTTAATTTTCA DNA 2: TGAAAATTAAATAAATACTTGAATAATATTATTTCT	6.53 ln median PBM intensity, better of two orientations	5.92 ln median PBM intensity, better of two orientations	6.75 ln median PBM intensity, better of two orientations	
XGTACX_site3746 (dsDNA) DNA 1: ATATAAAATATTACGTGTACACATAAATAAAAATAA DNA 2: TTATTTTTATTTATGTGTACACGTAATATTTTATAT				13 ln median PBM intensity, better of two orientations
GTGCAC_negctrl_site519 (dsDNA) DNA 1: AAAATACATATATATATATATAATATTGTTGTTAAA DNA 2: TTTAACAACAATATTATATATATATATATGTATTTT		6.31 ln median PBM intensity, better of two orientations	7.2 ln median PBM intensity, better of two orientations	
XGTACX_site2835 (dsDNA) DNA 1: GGGGGGATGAGATATTGTACTTTTTAGGAAAGTGTA DNA 2: TACACTTTCCTAAAAAGTACAATATCTCATCCCCCC				13.2 ln median PBM intensity, better of two orientations
GTGCAC_negctrl_site553 (dsDNA) DNA 1: GGAAAATCTAATCATTTAATATTTATTTATCTAATT DNA 2: AATTAGATAAATAAATATTAAATGATTAGATTTTCC	6.68 ln median PBM intensity, better of two orientations	5.78 ln median PBM intensity, better of two orientations	6.76 ln median PBM intensity, better of two orientations	
GTGCAC_negctrl_site321 (dsDNA) DNA 1: ACAAAAAATTAATGAGAAATGGAATAATAAGTTATA DNA 2: TATAACTTATTATTCCATTTCTCATTAATTTTTTGT	6.83 ln median PBM intensity, better of two orientations	6.32 ln median PBM intensity, better of two orientations	7.2 ln median PBM intensity, better of two orientations	
GTGCAC_negctrl_site528 (dsDNA) DNA 1: AAACATCTTTACAACGTCCCTCCTTTTTTATGTACC DNA 2: GGTACATAAAAAAGGAGGGACGTTGTAAAGATGTTT		6.32 ln median PBM intensity, better of two orientations	7.28 ln median PBM intensity, better of two orientations	
XGTACX_site4991 (dsDNA) DNA 1: TAAAATAATATATGGTGTACACAAAAGTATAAATAA DNA 2: TTATTTATACTTTTGTGTACACCATATATTATTTTA				13.2 ln median PBM intensity, better of two orientations
XGTACX_site7607 (dsDNA) DNA 1: AATATACAATAAAGGTGTACACATATATGATGCAAG DNA 2: CTTGCATCATATATGTGTACACCTTTATTGTATATT				12.8 ln median PBM intensity, better of two orientations
GTGCAC_negctrl_site227 (dsDNA) DNA 1: ATAGAATAAATTTTGTCATTTATTCCTTATATATAA DNA 2: TTATATATAAGGAATAAATGACAAAATTTATTCTAT	6.84 ln median PBM intensity, better of two orientations	6.37 ln median PBM intensity, better of two orientations	7.14 ln median PBM intensity, better of two orientations	
XGTACX_site7745 (dsDNA) DNA 1: GGGGACGCGGGTGGGGGTACTCACACTATGCAAAAT DNA 2: ATTTTGCATAGTGTGAGTACCCCCACCCGCGTCCCC				13 ln median PBM intensity, better of two orientations
